Legend:
[1] = test system: Gq signaling in HEK 293T cells; test: Light-induced Ca2+ signal (Calbryte 630 AM dye) in opsin-expressing HEK 293T cells; type: cell-based; conditions: for Light Sensitivity / Response amplitude: Ca2+ response amplitude: Table 8
Procedure: (§1) Whether heterologous expression of the Opn5 orthologs from chicken, turtles, humans and mice (which share 80-90% protein sequence identity) have the capacity to mediate blue light-induced Gq signaling activation within HEK 293T cells is tested (FIG. 1a and table 7). Blue light for stimulation and the red intracellular calcium indicator Calbryte™ 630 AM dye are used to monitor the relative Ca^2+ response (FIG. 1b).
b, Pseudocolor images of the Ca2+ signal before and after blue light stimulation (10 s; 100 μW/mm^2; 488 nm) in HEK 293T cells expressing Opn5 from three species (Gallus gallus, Homo sapiens, and Mus musculus). Scale bar, 10 μm.
Characterizing the light-activating properties of cOpn5 heterologously expressed in HEK 293T cells is performed. […] The effects of different light durations on cOpn5-expressing HEK 293T cells are tested. […] Therefore, the light sensitivity of cOpn5 is 3-4 orders of magnitude higher than the reported values of the light-sensitive Gq-coupled GPCRs and even 2-3 orders higher than those of the commonly used optogenetic tool Channelrhodopsin-2 (ChR2)(Lin, 2011; Zhang et al., 2006) (table 8).
The performance of cOpn5 to that of opto-a1AR, a chimera GPCR engineered by mixing rhodopsin with Gq-coupled adrenergic receptor is compared. […] The performance of cOpn5 to that of opn4, a natural opsin which was reported as a tool for Gq signaling activating is also compared. […] Therefore, compared with existing opsin-based tools (opto-a1AR and opn4), cOpn5 is much more light-sensitive (˜3 orders more sensitive), requires much shorter time exposure (10 ms vs. 60 s), and produces stronger responses. […]
Experiments description: the following table 9 is a partial list of cOpn5 orthologs from vertebrata tested in the present invention. Whole genes of all reported opsin5 orthologs from vertebrata (the vertebrates subphylum, including rotundia, cartilaginous fishes, bony fishes, Amphibia, reptila, ornitha and mammals) are synthetized, and expressed in HEK 293T cells. Calcium imaging with or without 470 nm blue light stimulation is performed to test the sensitivity of the opsin 5 orthologs in response to light. The time course of light-induced calcium signal reveal the activated degree of Gq signaling pathway and the sensitivity of these orthologs.

[2] = test system: MARCKS protein, a well-established target of PKC; test: Phosphorylation of MARCKS in cOpn5-expressing HEK 293T cells; type: cell-based; conditions: normalized to α-tubulin; PKC activity-dependent
Procedure: as §1
g, Phosphorylation of MARCKS in cOpn5-expressing HEK 293T cells in the control group (no light stimulation), the light stimulation group, and light+staurosporine (ST, PKC inhibitor) group. The amount of p-MARCKS in the same fraction was normalized to the amount of α-tubulin. **P=0.0096, ***P=0.0004; Tukey's multiple comparisons test.
e, One representative of phosphorylation of MARCKS in cOpn5-expressing HEK 293T cells in the control group (no light stimulation), the light stimulation group, and light+staurosporine group. The amount of p-MARCKS in the same fraction was normalized to the amount of α-tubulin.

[3] = test system: neurons in slice preparations of the motor cortex, hippocampus, and dorsal striatum; test: Whole-cell patch-clamp recording of cOpn5-expressing neurons in slices; type: cell-based, mouse
Text: The effect of light-induced cOpn5 activation on the electrophysiological properties of neurons in slice preparations of the motor cortex, hippocampus, and dorsal striatum is next investigated (FIG. 8d). Two types of activation patterns are observed. In a majority of recorded neurons, blue light pulses induce a small depolarizing current (˜20 pA) in the voltage-clamp mode, and induce delayed-yet-vigorous firing of action potentials in the current-clamp mode (FIG. 8e, left, n=12 neurons). […] In the other subset of neurons, brief light pulses rapidly evoked strong inward currents (100-1000 pA) and drove bursting firing of action potentials (FIG. 8e, right, n=6 neurons). […] Of note, unlike generated by ChR2 optogenetics^53, the action potential evoked by cOpn5 photostimulation is not time-locked to light pulses.
d, Schematic diagram depicts optogenetic stimulation and whole-cell patch-clamp recording of cOpn5-expressing neurons in the cortex, striatum and hippocampus.

[4] = test system: LH GABAergic neurons of VGAT-Cre mice; test: Optogenetics and food intake assay; type: in vivo, mouse; conditions: 20 Hz; 5 ms/pulse; 473 nm; 0.75 mW; vs EGFP-expressing control mice
Procedure: Finally, the utility of cOpn5-mediated optogenetics for modulating animal behavior is assessed. The lateral hypothalamus (LH) is a brain center with known functions in reward processing and feeding behaviors^54,55. cOpn5 is expressed in the LH GABAergic neurons of VGAT-Cre mice and implanted optical fibers to deliver light pulses into the LH of freely behaving mice (FIG. 8g). […] Electrophysiological recordings on LH and ZI cOpn5-expressing neurons are performed to characterize the response profiles. The injection sites and placement of optical fibers are confirmed by whole brain slices (FIG. 10a-c). […] Thus, cOpn5 is effective for rapidly, accurately, and reversibly modulating animal behavioral states.
g, Schematic diagram of the experimental setup for optogenetics and food intake assay. cOpn5-EGFP was expressed in GABAergic neurons within the lateral hypothalamus (LH) of VGAT-Cre mice. EGFP was expressed as a control.
h, Summary of light-induced (20 Hz; 5 ms/pulse; 473 nm; 0.75 mW output from the fiber tip), cOpn5-mediated activation of eating behaviors. ***P=0.0003; n.s., non-significant; n=6 mice; unpaired t test. Error bars indicate S.E.M.

[5] = 10 ms 16 μW/mm2 470 nm, mean±S.E.M., n=10 cells

B1: cOpn5: Chicken (Gallus gallus) Opn5 (neuropsin) ortholog, SEQ ID NO:1, GenBank NM_001130743.1 (protein, listed as Gallus lafayetii)
chain: MSGMASDCNSSSQEEYLPHYVQQEDPFASKLSREADIIAGFYLTVIGILSTLGNGYVIFMSSKRKKKLRPAEIMTVNLAVCDLGISVVGKPFSIISFFSHRWIFGWMGCRWYGWAGFFFGCGSLITMTAVSLDRYLKICHLAYGTWLKRHHAFICLALIWAYATFWATVPFAGVGSYAPEPFGTSCTLDWWLAQASVAGQAFVLSILFFCLLFPTAVIVFSYVKIILKVKSSTKEVAHYDTRIQNSHILEMKLTKVAMLICAGFLIAWIPYAVVSVWSAFGQPDSVPIQFSVVPTLLAKSAAMYNPIIYQVIDCKFACCRSGGPKTLQKKSSLKESRMYTLSSHRDSAALSGTQLEV
light sensitivity higher than reported values of Channelrhodopsin-2 (ChR2) [1]: 2-3 orders of magnitude | light sensitivity higher than reported values of light-sensitive Gq-coupled GPCRs [1]: 3-4 orders of magnitude | more light-sensitive than opto-a1AR and opn4 [1]: ~3 orders | 10% peak activation time of Ca2+ signal [1, 5]: 1.36 ± 0.55 s | 90% peak activation time of Ca2+ signal [1, 5]: 2.37 ± 0.87 s | decay time τ of Ca2+ signal [1, 5]: 18.66 ± 4.98 s | Ca2+ signals without extracellular Ca2+ ([1]; 10 ms, 16 μW/mm2, 470 nm): resistant to the removal of extracellular Ca^2+ | light duration at which Ca2+ response achieves saturation ([1]; 16 μW/mm2, 470 nm): over 10 ms | Ca2+ response to longer-wavelength visible light (561 nm or above) ([1]; 100 μW/mm2): completely ineffective | Ca2+ response to UVA light (365 and 395 nm) ([1]; 100 μW/mm2, versus 470 nm): less effective | light intensity producing about half maximum response ([1]; 470 nm, 10 ms): ~4.8 μW/mm^2 | light intensity producing full maximum response / full activation ([1]; 470 nm, 10 ms): 16 μW/mm^2 | light duration required for full activation ([1]; 470 nm, 16 μW/mm2): 10 ms | Light Sensitivity ([1]; HEK 293T cells, 10 ms stimulation, response ~3.0 ΔF/F): 16 μW/mm^2 | Response amplitude: Ca2+ response amplitude ([1]; HEK 293T cells, 470 nm, 0.026 μW/mm2, >2 s): ~1 (ΔE/F) | Light Sensitivity ([1]; HEK 293T cells, >2 s stimulation, response ~1): 0.026 μW/mm^2 | Response amplitude: Ca2+ response amplitude ([1]; HEK 293T, light as in the row's sensitivity and duration columns): ~3.0 (ΔF/F) | light-induced increase in Ca2+ signal ([1]; blue light 10 s, 100 μW/mm2, 488 nm, no exogenous retinal): ~3 ΔF/F | peak amplitudes of Ca2+ signals ([1]; cOpn5-expressing cells, 10 ms blue light pulses at 16 μW/mm2): 3-8 ΔF/F | more rapid than opto-a1AR or opn4 (temporal resolution) ([1]; in response to 10 ms light pulses): ~3 orders of magnitude | response kinetics versus hM3Dq-expressing cells ([1]; light 10 s vs CNO puff 100 nM 10 s): faster and temporally more precise response | wavelength eliciting the strongest Ca2+ transients ([1]; wavelengths 365-630 nm at fixed 100 μW/mm2): 470 nm | blue light-triggered phosphorylation of MARCKS protein [2]: triggers the phosphorylation of MARCKS protein | firing rate of neurons after pulsed 473 nm light stimulation ([3]; 1 Hz, 5 s, n=18): increased | firing rate across repetitive trials of light stimulation ([3]; 10 ms/pulse at 10 Hz): non-attenuated | spike latency after the initial light pulse, higher frequencies of light pulses ([3]; majority-type neurons): ~3 s | spike latency after the initial light pulse, lower frequency of light pulses ([3]; majority-type neurons): ~5 s | inward currents evoked by brief light pulses ([3]; other subset of neurons (n=6)): 100-1000 pA | depolarizing current induced by blue light pulses ([3]; voltage-clamp, majority of recorded neurons (n=12)): ~20 pA | food intake on light stimulation [4]: significant increase in food intake
